Experiment: yeast display, Sf9 membrane polyspecificity reagent, FACS + sequencing; frameworks hold sequencing errors
Method in brief: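 A nanobody's polyreactivity label depends on the gate it was sorted from. Yeast display cells were stained with 10% biotinylated, detergent-solubilized Sf9 membrane reagent for 1 hour at 4 °C, enriched on streptavidin microbeads and sorted by FACS. The low and high (top ~1%) gates were set on anti-HA fluorescence for expression and streptavidin fluorescence for reagent binding.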

Row | Sequence | polyreactivity (PSR sort gate)
1 | QVQLVESGGGLVQAGGSLRLSCAASGRTNCEYTMGWYRKAPGKERELVAVITKSGGSTYYADSVKGRFTISRDNAKNTVYLQMNSLKPEDTAVYDCAARRYYYLNSRYGYWGQGTQVTVSS | high polyreactivity
2 | QVQLVESGGGLVQAGGSLRLSCAASGSTFKYYAMGWYRQAPGKERELVAAISGTGGNTYYADSVKGRFTISRDNAKNTVYLQMNSLKPEDTAVYYCAAGFRRGWAYTTYDYWGQGTQVTVSS | low polyreactivity
3 | QGQLVESGGALFQAGGSLSLSCAASGRNFKRYAMGRYRQAPGKERELVAAIRTSDGLTYYADSVKGRFTISRDNAENTDYLQMNSLKPEETSVYYCADGYPYYHVYGYGYWGQGTQVTVSS | low polyreactivity
4 | QVQLVESGGGLVQAGGSLRLSCAASGLIFPSYTMGSYRQAPGKERELVAAITFSGDSTNYADSVKGRFTISRDNAKNTVYLQMNSLKPEDTAVYYCAAETITYGFDGDYWGQGTQVTVSS | low polyreactivity
5 | QVQLVESVGGLVQAGGSLRLICAASGSIFLDNAKGCYRQAPVKERELVSAISWGGGSTYYADSVKGRFTISRDNAKNTVYVQMNSLKPEDTAVYYCAAESYYYIRYFDYSRWMGYWGQGTQVTVSS | low polyreactivity
6 | QVQLVESGRGLVQAGGSLRLSCAASGSIFNAYAMGWYRQAPGKERELVADISKRTSYADSVKGRFTISRDNAKNTVYLQMNSLKPEDTADYYCAKEVDEPDGYEYDYWGQGTQVTVSS | low polyreactivity
7 | QVQLVESGGGLVQAGGSLRLSCAASGSIFAYNAMGWYRQAPGKERELVAAITDSGGSTFYADSVKGRFTISRDNAKTTVYLQMNSQKPEDTAVYYCATSGDRLVWGQCTQVTVSS | low polyreactivity
8 | QVQLVESGGGLVQAGGSLRLSCAASGFIFNYNTMGWYRQAPGKERELVAAITWSGVSTYADSVKGRFTISRDNAKNTVYLQMNSLKPEDTAVYYCAASPYQRESVYDFGYDYWGQGTQVTVSS | low polyreactivity
9 | QVQLVESGGGLVQAGGSLRLSCAASGFIFYRYAMGCYRQAPGTEREFVAAISFRDGITYADSVKGRFTISRDNAKNTVYLQMNTLKPEDTAVYYCNAALSQLRRGGLAMDYWGQGTQVTVSS | low polyreactivity
10 | QVQLVESGGGLVQAGGSLRLSCAASGRTFSTYAMGWYRQAPGKERELVAAKSSGGGRTYYADSVKGRFTISRDNAKNTVYLQMNSLKPEDTAVYYCAADRYFRSRRSYEYWGQGTQVTVSS | low polyreactivity
11 | HVQLQESGGVLVQARGSLRLSCAASGNISYSRNMGWYRQAPGKERELVDAIDRGAITYYADSVKGRFTISRDNANNTVYLQIYSLKPEDSAVYYCAAEYHDRWDHRYWGQGSQVTVSS | high polyreactivity
12 | QVQLVESGGGLVQAGGSLRLSCAASGFILGSNVMGWYRQAPGKERELVAAISYSGGSTYYADSVKGRFTISRDNAKNTVYLQMNSLKPEDTAVYYCARRLTREYDYWGQGTQVTVSS | low polyreactivity
13 | QVQLVESGVGLVHAGGSLRLSCAASGSTFYANTMGWYIQAPGKERELVAAISQSGGSTYYADSVKGRFSISRDNAKNTVYLQMNSLKPEDTAVYYCAARRLPRKERKLYYWGQGTQVTVSS | high polyreactivity
14 | QVQLVESGGGLVQAGGSLRLSCAASGSIFTYYTMGWYRPAPGKERELVAAISNRGGSTYYADSVKGRFTISRDNSKITVYLQMNSLKPEDTAVYYCNKDVGVAVEMAYWGQGTQVTVSS | high polyreactivity
15 | QVQLVESGGGLVQAGGSLRLSCAASGRIFYHYPMGWYRQAPGKEREFVAAISLRAGSTYYADSVKGRFTISRYNAKNNVYLQMNSLKPEDTAFYYCAARRASYVTSRYDYWGQGTQVTVSS | high polyreactivity
16 | QVQLVESGGGLVQAGGSLRLSCAASGRIFHVNAMGWYRQAPGKEMDLVAAISTSGGRTYYADSVKGRFTISRDNAKNTVYLQMNSLKPEDTAVYYCAAVSRAPGLRYDYWGQGTQVTVSS | high polyreactivity

Row | Sequence | polyreactivity (PSR sort gate)
17 | QVQLVESGGGLVQAGGSLRLSCAASGSIFEQYAMGGSRPAPGKERELVAAISKRGTSTYYADSVKGRFTISRDTPKNTVYLNMNSLKPEDTAVYYCAATNRWYYRAAADVYAFGYWGQGTQVTVSS | high polyreactivity
18 | QVQLVESGGGLVQAGGSLRLSCAASGSIFSGYTMGWYRQAPGKERELVATISSSGGRTRYADSVKGRFTISRDNAKNTVYLQMNSLKPEDTAVYYCAAAYYVKYNSEYEYWGQGTQVTVSS | high polyreactivity
19 | QVQLVESGGGLVQAGGSLRLSCAASGRIFYLNAMGWYRQAPGKERQLVATITSGGSTNYADSVKGRFTISRDNAKNTVYLQMNSLKPEDTAVYYCAAGVSWYGPYDYLWFYAFDYWGQGTQVTVSS | low polyreactivity
20 | QVQLVESGGGLVQAGGSLRFSCAASGTFYYYAMGWYRHAPGKERELVAAISYSGGRTYYADSVKGRFTISRDNAKNTVYLQMNSLKPEDTAVYYCNALYRKTPSYGADDYWGQGTQVTVSS | high polyreactivity
21 | QVQLVESGGGLVQAGGSLRLSCAASGRILRYNAMGWYRQAPGKERELVASISGNGGSTYYADSVKGRFTISRDNAKNTVYLQMKSLKPEDTAVYYCNKYYYSSRGQKEYDYWGQGTQVTVSS | low polyreactivity
22 | QVQLVESGGGLVQAGGSLRLSCAASGLTFDYNAMGWYRQAPGKERELVAAITSGGSTKYADSVKGRFTISRDNAKNTVYLQMNSLKPEDTAVYYCAATAYVWYYLSYTYYYWGQGTQVTVSS | low polyreactivity
23 | QFQLVESGRGLVQAGVSLRLSCASSGFTFILYAIGCYRQATGKERELVAGISNGGSTYYADSVKGRFTISRDNAKNTVYFQMNSLKPEDTAVDYCNRDLTFYLYVSGNYFGQGTQVTVSS | low polyreactivity
24 | QVQLVESGGGLVQAGGSLRLSCAASGSTLLYYAMGWYRQAPGKERELVAAISSTGSTNYADSVKGRFTISRDNAKNTVYLQMKSLKPEDTAVYYCAADYSVPTSQAYDYWGQGTQVTVSS | low polyreactivity
25 | QVQLVESGGGLVQAGGSLRLSCAASGSIFYRNTMGWYRQAPGKERELVASINTGTGTYYADSVKGRFTISRDNAKNTVYLQMNSLKPEDTAVYYCNKVSYVKYGYWGQGTQVTVSS | high polyreactivity
26 | QVQLVESGGGLVQAGGSLRLSSAASGSTFTSYAMGWYRQAPGKEREVVSTITGRGGSTSYSDSVKGRFTISRDNAKNTVYLQMNSLKPEDTAVYYCAKRVVVWYFGTGDYWGQGTKVTVSS | low polyreactivity
27 | QVQLVESGGGLVQAGGSLRLSCAASGITFLYYAMGWYRQAPGKERELVAAISGGGASTYYADSVKGRFTSSRDNAKNTVYLQMNSLKPEDTAVYDCAAGYRDFFRARFGYWGQGTQVTVAS | high polyreactivity
28 | QVQLVESGGGLVQAGGSLRLSCAASGRTFSRYAMGWYRQAPGKERELVATINSRAGITNYADSVKGRFTISRDNAKNTVYLQMNSLKPEDTAVYYCAAKGVIISYDTLRYDYWGQATQVTVSS | high polyreactivity
29 | QVQLVESGGGLVQAGGSLRLSCAASGYTFYYAMGWYRQAPGKERELVAAISAGGGRTYYADSVKGRFTISRDNAKNTVYLQMNSLKPEDTAVYYCAGDYFYSQVAYVYWGQGTQLTVSS | high polyreactivity
30 | QVQLVESGGGLVQAGGSLRLSCAASGITFYYYARGWYRQAPGKERELVAAINSGGITNYADSVKGRFTISRDNAKNTVFLQMNSLKPEDTAVYYCAASSGFRYRYGYWGQGTQVTVSS | high polyreactivity
31 | QVQLVESVGGLVQAGGSLRLSCAASGSTFYNNAMGWYRQAPGKERELVAAISSGGGTYYADSVKGRFTISRDNAMNTVYLQMNSLKPEDTAVYYCAADFANTTHWGRIKRNDYWGQGTQVTVSS | low polyreactivity
32 | QVQLVESGGGLVQAGGSLRLSCAASGSIFEYNDMGSYRQAPGKERELVAAITTGGRTSYADSVKGRFTISRDNAKYTVYLQMNSLKPEDTAVYYCNKDHSSYGASGYDYWGQGTQVTVSS | low polyreactivity

— the nanobody polyreactivity screen of Harvey et al. (2022)
